{"source": "paper PMC6778065", "key": {"[1]": {"target": "Tau (endogenous, rat primary hippocampal neurons) (rat (endogenous in primary hippocampal neurons)) (UniProt P19332)", "sequence (P19332 other isoform, or with tags, fused parts or gaps)": "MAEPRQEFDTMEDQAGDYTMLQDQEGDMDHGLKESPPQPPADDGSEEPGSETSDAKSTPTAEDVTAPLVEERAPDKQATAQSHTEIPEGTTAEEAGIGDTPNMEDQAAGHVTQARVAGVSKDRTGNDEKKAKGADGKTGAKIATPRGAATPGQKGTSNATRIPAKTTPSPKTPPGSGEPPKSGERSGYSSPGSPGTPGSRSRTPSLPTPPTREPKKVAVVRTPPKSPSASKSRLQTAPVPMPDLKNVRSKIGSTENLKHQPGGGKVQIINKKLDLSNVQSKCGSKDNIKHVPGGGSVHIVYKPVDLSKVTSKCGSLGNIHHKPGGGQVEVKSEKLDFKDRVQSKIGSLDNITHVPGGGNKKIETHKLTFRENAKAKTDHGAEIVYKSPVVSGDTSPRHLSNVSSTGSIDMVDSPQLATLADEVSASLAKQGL", "experiment": "proximity ligation; PLA in fixed rat primary hippocampal neuronal cultures (DIV7, 14, 21; lentiviral shBIN1 or overexpression at DIV8, read at DIV14; compound screen incl. Cyclosporin A and U0126 at DIV21); primary antibodies BIN1-99D (mouse) and Tau (rabbit); PLA volume or PLA:Tau ratio"}, "[2]": {"target": "BIN1 (endogenous, primary neurons) (UniProt O08839)", "experiment": "proximity ligation assay, high-content screen", "conditions": "reference: DMSO-treated neurons; sites T231"}, "[3]": {"target": "Tau (endogenous, primary neurons) (UniProt P19332)", "experiment": "proximity ligation assay, high-content screen", "conditions": "reference: DMSO-treated neurons; sites T348"}}, "data": [{"substance": "BIN1iso1 phosphomimetic T348E, overexpressed in primary neurons (from UniProt O08539-1 1-588) (natural protein)", "values": [{"measurement": "fold PLA volume against BIN1iso1 (after normalization with BIN1 immunofluorescence)", "setting": "[1]", "result": 2.1, "unit": "fold"}]}, {"substance": "Tau (endogenous, primary neurons) (from UniProt P19332) U0126-treated neurons (MEK inhibitor)", "values": [{"measurement": "other: percent decrease of PLA:Tau ratio", "setting": "[2]", "result": 36.2, "unit": "%"}]}, {"substance": "BIN1 (endogenous, primary neurons) (from UniProt O08839) Cyclosporin A-treated neurons (calcineurin inhibitor)", "values": [{"measurement": "other: percent increase of PLA:Tau ratio", "setting": "[3]", "result": 42.6, "unit": "%"}]}]}
